Here are results for six molecules from article PMC9100253 (International Journal of Molecular Sciences, 2022).

Data set [1] has as its target T1, CTX-M-15 (Escherichia coli, UniProt A0A5R8T042).
T1 construct: gene bla; blaCTX-M-15 in pET200 TOPO, E. coli BL21(DE3); DEAE and hydroxyapatite purification; three molecules per asymmetric unit
The data set is described as follows: inhibition of ceftiofur hydrolysis, absorbance. The data set is classed as biochemical.

Data set [2] has as its target T2, CTX-M-15 (Escherichia coli, UniProt A0A5R8T042, S73A).
T2 construct: gene bla
The data set can be described thus: biochemical.

Data set [3] concerns CO/N=C(\C(=O)N[C@@H]1C(=O)N2C(C(=O)O)=C(CSC(=O)c3ccco3)CS[C@H]12)c1csc(N)n1. The data set can be described thus: purified protein. The data set is classed as biochemical, Escherichia coli. Particulars: PBS pH 7.4, 10 nM enzyme.
Data set [4] concerns CC1(C)S[C@@H]2[C@H](NC(=O)[C@H](N)c3ccccc3)C(=O)N2[C@H]1C(=O)O. The data set is described as follows: purified protein. The data set is classed as biochemical, Escherichia coli. Conditions: PBS pH 7.4, 10 nM enzyme, acyl-enzyme structure, covalent.
Data set [5] relates to CO/N=C(\C(=O)N[C@@H]1C(=O)N2C(C(=O)O)=C(CS)CS[C@H]12)c1csc(N)n1. The data set can be described thus: purified protein. The data set is classed as biochemical, Escherichia coli. Particulars: PBS pH 7.4, 10 nM enzyme, acyl-enzyme structure, covalent.
The test system of data set [6] is O=C(Cc1cccs1)N[C@@H]1C(=O)N2C(C(=O)O)=C(/C=C/c3ccc([N+](=O)[O-])cc3[N+](=O)[O-])CS[C@H]12. The data set is described as follows: purified protein. The data set is classed as biochemical, Escherichia coli. Particulars: PBS pH 7.4, 10 nM enzyme.

In the case of `O=C(O)[C@H]1/C(=C/CO)O[C@@H]2CC(=O)N21` [clavulanic acid], in data set [1], the Ki came out at 0.022 ± 0.007 µM. For the same molecule, in data set [2], the Kd came out at 289 µM.
On to `O=C(Cc1cccs1)N[C@@H]1C(=O)N2C(C(=O)O)=C(/C=C/c3ccc([N+](=O)[O-])cc3[N+](=O)[O-])CS[C@H]12` [nitrocefin], for which, in data set [2], the Kd came out at 71.3 µM.
Same read-out and setting: under `CC1(C)S[C@@H]2[C@H](NC(=O)[C@H](N)c3ccccc3)C(=O)N2[C@H]1C(=O)O` [ampicillin] stands 28.8 µM.
On to CTX-M-15 (Escherichia coli O25b:H4), for which, in data set [3], the Km stood at 330.0 ± 14.1 µM, the Vmax was found to be 188 µmol/min, the kcat is 314 ± 13 s⁻¹ and the kcat/Km turned out to be 950000 ± 10000 M⁻¹ s⁻¹. Further, in data set [4], the Km stood at 197.8 ± 13.0 µM, the Vmax was 60.6 µmol/min, the kcat was found to be 102 ± 5.6 s⁻¹ and the kcat/Km stood at 520000 ± 10000 M⁻¹ s⁻¹. Further, in data set [5], the Km came out at 141.2 ± 11.2 µM, the Vmax stood at 293 µmol/min, the kcat was determined as 490 ± 16.2 s⁻¹ and the kcat/Km came out at 3.46e+06 ± 140000 M⁻¹ s⁻¹. Also, in data set [6], the Km was found to be 1047.0 ± 75.8 µM and the Vmax was determined as 203 µmol/min.
For the molecule `CO/N=C(\C(=O)N[C@@H]1C(=O)N2C(C(=O)O)=C(CSC(=O)c3ccco3)CS[C@H]12)c1csc(N)n1` [ceftiofur], the Kd in data set [2] came to 38.2 µM.
Molecule `CO/N=C(\C(=O)N[C@@H]1C(=O)N2C(C(=O)O)=C(CS)CS[C@H]12)c1csc(N)n1` [desfuroylceftiofur] displayed a Kd in data set [2] of 10.7 µM.

For orientation: Ki means a measure of affinity in units of concentration, obtained from inhibition or displacement. The term Kd denotes the equilibrium constant for the complex coming apart. Lower therefore signals higher affinity. In general, Km refers to the substrate concentration at which the rate is half of its maximum. For orientation: Vmax means the top rate of the reaction or transport when substrate is in excess. By kcat is commonly meant the maximal rate divided by the concentration of active sites. The kcat/Km is the second-order rate constant that governs catalysis at low substrate concentration.
